The supplement of paper PMC10567573

B1: FBXO33 (parent)
chain: RLRGLLRVLRGRPGAGSRRRGRMA
B2: HESX1 (parent)
chain: HVPNPPSGISFPSVVDHPMPEERA
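Further: lentivirally expressed fusions sorted by FACS into six bins by GFP to DsRed ratio, PSI derived from sequencing read proportions per bin multiplied by bin number.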

Variants of: B1
Test: protein stability index of a GFP-peptide fusion (GPS, HEK-293T) (PSI 1-6); higher = more stable
Conditions: c terminus: a fixed tail appended
RLRGLLRVLRGRPGAGSRRRGKMA gave a protein stability index of 1.76. In the case of RLRGLLRVLRGRPGAGSRRRGIMA, the protein stability index is reported as 2.78. With RLRGLLRVLRGRPGAGSRRRGNMA the protein stability index was 1.77. Variant RLRGLLRVLRGRPGAGSRRRGWMA has a protein stability index of 1.65. RLRGLLRVLRGRPGAGSRRRGHMA gave a protein stability index of 2.33. With RLRGLLRVLRGRPGAGSRRRGYMA the protein stability index was 1.7. RLRGLLRVLRGRPGAGSRRRGMMA gave a protein stability index of 2.25. RLRGLLRVLRGRPGAGSRRRGCMA showed a protein stability index of 2.09. With RLRGLLRVLRGRPGAGSRRRGSMA the protein stability index was 1.99. Work on RLRGLLRVLRGRPGAGSRRRGRVA yielded a protein stability index of 1.97. In the case of RLRGLLRVLRGRPGAGSRRRGRNA, the protein stability index is reported as 2.02. RLRGLLRVLRGRPGAGSRRRGRPA showed a protein stability index of 1.58. In the case of RLRGLLRVLRGRPGAGSRRRGRLA, the protein stability index is reported as 2.89. For RLRGLLRVLRGRPGAGSRRRGRTA, the protein stability index was 2.44. With RLRGLLRVLRGRPGAGSRRRGRHA the protein stability index was 2.42. With RLRGLLRVLRGRPGAGSRREGRMA the protein stability index was 2.29. RLRGLLRVLRGRPGAGSRRQGRMA showed a protein stability index of 1.56. Variant RLRGLLRVLRGRPGAGSRRVGRMA has a protein stability index of 2.39. RLRGLLRVLRGRPGAGSRRMGRMA showed a protein stability index of 2.24. With RLRGLLRVLRGRPGAGSRRHGRMA the protein stability index was 1.23. For RLRGLLRVLRGRPGAGSRRCGRMA, the protein stability index was 1.72. RLRGLLRVLRGRPGAGSRRFGRMA showed a protein stability index of 1.13. Work on RLRGLLRVLRGRPGAGSRRAGRMA yielded a protein stability index of 4.73. With RLRGLLRVLRGRPGAGSRRRDRMA the protein stability index was 1.78. In the case of RLRGLLRVLRGRPGAGSRRRIRMA, the protein stability index is reported as 2.32. For RLRGLLRVLRGRPGAGSRRRFRMA, the protein stability index was 1.58. With RLRGLLRVLRGRPGAGSRRRCRMA the protein stability index was 1.39. For RLRGLLRVLRGRPGAGSRRRRRMA, the protein stability index was 3.38. For RLRGLLRVLRGRPGAGSRRRHRMA, the protein stability index was 1.66. In the case of RLRGLLRVLRGRPGAGSRRRLRMA, the protein stability index is reported as 1.57. With RLRGLLRVLRGRPGAGSRRRPRMA the protein stability index was 1.69. RLRGLLRVLRGRPGAGSRRRGRMR showed a protein stability index of 2.63. RLRGLLRVLRGRPGAGSRRRGRMD gave a protein stability index of 1.04. Variant RLRGLLRVLRGRPGAGSRRRGRMY has a protein stability index of 2.27. For RLRGLLRVLRGRPGAGSRRRGRME, the protein stability index was 2.54. Variant RLRGLLRVLRGRPGAGSRRRGRMW has a protein stability index of 2.42. In the case of RLRGLLRVLRGRPGAGSRRRGRMP, the protein stability index is reported as 3.3. In the case of RLRGLLRVLRGRPGAGSRRRGRML, the protein stability index is reported as 1.64. In the case of RLRGLLRVLRGRPGAGSRRRGRMQ, the protein stability index is reported as 2.74. RLRGLLRVLRGRPGAGSRRRGRMI showed a protein stability index of 1.46. In the case of RLRGLLRVLRGRPGAGSRRRGRMF, the protein stability index is reported as 2.73. With RLRGLLRVLRGRPGAGSRWRGRMA the protein stability index was 1.48. In the case of RLRGLLRVLRGRPGAGSRTRGRMA, the protein stability index is reported as 1.75.

Variants of: B2
Test: as above
Conditions: c terminus: a fixed tail appended
In the case of TVPNPPSGISFPSVVDHPMPEERA, the protein stability index is reported as 5.62. With YVPNPPSGISFPSVVDHPMPEERA the protein stability index was 2.25. Variant EVPNPPSGISFPSVVDHPMPEERA has a protein stability index of 5.06. In the case of NVPNPPSGISFPSVVDHPMPEERA, the protein stability index is reported as 5.29. WVPNPPSGISFPSVVDHPMPEERA showed a protein stability index of 4.33. VVPNPPSGISFPSVVDHPMPEERA gave a protein stability index of 5.32. CVPNPPSGISFPSVVDHPMPEERA gave a protein stability index of 4.48. Variant FVPNPPSGISFPSVVDHPMPEERA has a protein stability index of 3.54. Work on LVPNPPSGISFPSVVDHPMPEERA yielded a protein stability index of 4.51. In the case of MVPNPPSGISFPSVVDHPMPEERA, the protein stability index is reported as 5.08. For KVPNPPSGISFPSVVDHPMPEERA, the protein stability index was 4.82. Variant SVPNPPSGISFPSVVDHPMPEERA has a protein stability index of 5.2. Variant AVPNPPSGISFPSVVDHPMPEERA has a protein stability index of 5.22. Work on DVPNPPSGISFPSVVDHPMPEERA yielded a protein stability index of 5.46. GVPNPPSGISFPSVVDHPMPEERA gave a protein stability index of 5.41. PVPNPPSGISFPSVVDHPMPEERA showed a protein stability index of 5.28. Variant QVPNPPSGISFPSVVDHPMPEERA has a protein stability index of 5.07. In the case of RVPNPPSGISFPSVVDHPMPEERA, the protein stability index is reported as 4.62. IVPNPPSGISFPSVVDHPMPEERA gave a protein stability index of 4.77. Work on HVINPPSGISFPSVVDHPMPEERA yielded a protein stability index of 3.96. Variant HVGNPPSGISFPSVVDHPMPEERA has a protein stability index of 4.01. HVFNPPSGISFPSVVDHPMPEERA gave a protein stability index of 3.85. With HVHNPPSGISFPSVVDHPMPEERA the protein stability index was 4.13. Work on HVVNPPSGISFPSVVDHPMPEERA yielded a protein stability index of 3.86. HVDNPPSGISFPSVVDHPMPEERA gave a protein stability index of 5.34. Variant HVENPPSGISFPSVVDHPMPEERA has a protein stability index of 5.25. Variant HVMNPPSGISFPSVVDHPMPEERA has a protein stability index of 4.21. In the case of HVQNPPSGISFPSVVDHPMPEERA, the protein stability index is reported as 4.09. HVNNPPSGISFPSVVDHPMPEERA gave a protein stability index of 4. HVANPPSGISFPSVVDHPMPEERA gave a protein stability index of 3.79. Work on HVTNPPSGISFPSVVDHPMPEERA yielded a protein stability index of 3.9. For HVKNPPSGISFPSVVDHPMPEERA, the protein stability index was 2.99. HVWNPPSGISFPSVVDHPMPEERA gave a protein stability index of 2.94. For HVLNPPSGISFPSVVDHPMPEERA, the protein stability index was 3.88. Work on HVSNPPSGISFPSVVDHPMPEERA yielded a protein stability index of 3.78. In the case of HVYNPPSGISFPSVVDHPMPEERA, the protein stability index is reported as 3.54. With HVRNPPSGISFPSVVDHPMPEERA the protein stability index was 2.27. In the case of HVCNPPSGISFPSVVDHPMPEERA, the protein stability index is reported as 3.54. HVPYPPSGISFPSVVDHPMPEERA showed a protein stability index of 3.06. For HVPTPPSGISFPSVVDHPMPEERA, the protein stability index was 2.22. HVPEPPSGISFPSVVDHPMPEERA showed a protein stability index of 3.8. For HVPDPPSGISFPSVVDHPMPEERA, the protein stability index was 3.88. HVPIPPSGISFPSVVDHPMPEERA showed a protein stability index of 3.54. In the case of HVPLPPSGISFPSVVDHPMPEERA, the protein stability index is reported as 4.27. HVPHPPSGISFPSVVDHPMPEERA gave a protein stability index of 3.09. HVPSPPSGISFPSVVDHPMPEERA showed a protein stability index of 2.24. In the case of HVPMPPSGISFPSVVDHPMPEERA, the protein stability index is reported as 3.04. Variant HVPQPPSGISFPSVVDHPMPEERA has a protein stability index of 3.45. Work on HVPWPPSGISFPSVVDHPMPEERA yielded a protein stability index of 3.44. For HVPFPPSGISFPSVVDHPMPEERA, the protein stability index was 3.47. Variant HVPCPPSGISFPSVVDHPMPEERA has a protein stability index of 2.23.
